Target: T1, Csn10-CBP-A2 (S. cerevisiae, UniProt Q12348 1-645)
T1 sequence (looked up): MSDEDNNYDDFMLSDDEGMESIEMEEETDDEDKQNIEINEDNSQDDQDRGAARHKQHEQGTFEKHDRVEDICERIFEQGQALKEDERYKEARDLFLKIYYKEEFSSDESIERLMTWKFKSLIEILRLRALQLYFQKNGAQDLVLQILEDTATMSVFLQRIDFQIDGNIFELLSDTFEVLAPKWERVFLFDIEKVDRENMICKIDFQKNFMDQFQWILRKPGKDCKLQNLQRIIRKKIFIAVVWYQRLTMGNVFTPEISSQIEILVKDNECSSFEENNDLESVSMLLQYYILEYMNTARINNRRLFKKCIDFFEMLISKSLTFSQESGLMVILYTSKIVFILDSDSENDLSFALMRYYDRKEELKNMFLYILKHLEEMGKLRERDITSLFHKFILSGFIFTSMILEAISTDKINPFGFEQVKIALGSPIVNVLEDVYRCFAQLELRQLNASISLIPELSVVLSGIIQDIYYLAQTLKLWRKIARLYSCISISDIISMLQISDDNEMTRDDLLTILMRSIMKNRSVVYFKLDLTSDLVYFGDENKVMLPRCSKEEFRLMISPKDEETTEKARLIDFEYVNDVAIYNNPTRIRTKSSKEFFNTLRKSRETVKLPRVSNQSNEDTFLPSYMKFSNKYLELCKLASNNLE
Test: affinity purification with mass spectrometry

B1: Rpn5 (natural protein, S. cerevisiae, UniProt Q12250 1-445, looked up)
chain: MSRDAPIKADKDYSQILKEEFPKIDSLAQNDCNSALDQLLVLEKKTRQASDLASSKEVLAKIVDLLASRNKWDDLNEQLTLLSKKHGQLKLSIQYMIQKVMEYLKSSKSLDLNTRISVIETIRVVTENKIFVEVERARVTKDLVEIKKEEGKIDEAADILCELQVETYGSMEMSEKIQFILEQMELSILKGDYSQATVLSRKILKKTFKNPKYESLKLEYYNLLVKISLHKREYLEVAQYLQEIYQTDAIKSDEAKWKPVLSHIVYFLVLSPYGNLQNDLIHKIQNDNNLKKLESQESLVKLFTTNELMRWPIVQKTYEPVLNEDDLAFGGEANKHHWEDLQKRVIEHNLRVISEYYSRITLLRLNELLDLTESQTETYISDLVNQGIIYAKVNRPAKIVNFEKPKNSSQLLNEWSHNVDELLEHIETIGHLITKEEIMHGLQAK
  stoichiometry N: 1

Source: publication PMC3069016 (Molecular Biology of the Cell, 2011)
